Measurements published in US11066655B2, “RNA polymerase, methods of purification and methods of use” (President and Fellows of Harvard College, priority 2013, dated 2021).

Assays:
[1] = Chamberlin et al. (1973); cited from earlier work
[2] = tested on: plasmid pET24-S5 RNAP; assay: Incorporation of AMP by RNA polymerases from the improved purification; format: biochemical
Procedure: FIGS. 8A-8B depict RNA polymerases described further herein. A) SDS-PAGE gel of Syn5 RNA polymerase purified as previously reported (S50, 18), newly purified Syn5 RNA polymerase using Ni-NTA chromatography in the presence of 2 M NaCl (S5N1), newly purified Syn5 RNA polymerase purified using Ni-NTA and gel filtration chromatography in the presence of 2 M NaCl (S5N2), and T7 RNA polymerase. B) Incorporation of AMP at RT by 50 nM RNA polymerases shown in A). A plasmid with both a Syn5 and T7 promoter was used as template for transcription.
Reactions for FIG. 8B contained 40 mM Tris-HCl pH 8.0, 2 mM spermidine, 10 mM DTT, 200 µM[…] GTP, C[…]P, UTP and ^3H-ATP (20 cpm/pmole), 1.5 U/µl RNaseOUT™, 50 nM Syn5 or T7 RNAP and 4 nM plasmid pET24-S5 RNAP. Reaction mixtures were incubated at room temperature (RT, ˜24° C.). After various times the reactions were stopped by the addition of 20 mM EDTA. 4 µl of the mixtures were then loaded onto Whatman DE81 filter paper disks and the disks were washed to remove the unincorporated ^3H-ATP. The amount of insoluble ^3H-AMP, corresponding to nucleotides incorporated into newly synthesized RNA, was measured using a scintillation counter. The data were analyzed using Prism software.

[3] = tested on: dsDNA template (1, 2 or 3); assay: Incorporation of 2′-F-dNTP into RNA by wild-type Syn5 RNA polymerase (Mg buffer); format: biochemical
Source text: FIG. 24 depicts gels showing incorporation of 2′-F-dNTP into RNA using WT Syn5 RNA polymerase.
According to certain aspects of the invention, wild-type Syn5 RNA polymerase was used in methods described herein for high yield 2′-F RNA synthesis, with DNA templates that allow incorporation of fewer than three 2′-F-dNTP into the first 12 nt of a full-length transcript and in a non-consecutive manner. Transcription initiation (synthesis of 2-12 nt RNA) can be the most unstable stage for an RNA polymerase. Once transcripts are extended over 12 nt, transcription elongation is robust and stable. To determine whether the incorporation of 2′-F-dNTP during the transcription initiation stage is a rate-limiting step of Syn5 RNA polymerase, Syn5 RNA polymerase transcription in the presence of 2′-F-dNTPs on DNA templates that allow various amounts of 2′-F-dNTP incorporation into the first 12 nt of the RNA products was compared. The following conditions were used.
The reaction components were incubated at 37° C. for 4 hrs. Then 0.4 µl of the reaction mixture were loaded onto 10% TBE gel and stained with ethidium bromide. […] See FIG. 1. lane 1 vs 2; 8 vs 7; 15 vs 14. […] Template 1 has also 3Gs but two of them are consecutive. […] See FIG. 1. lane 10 vs 7; lane 17 vs 14). […] Although there are only 2 Cs in the 1-12 nt region of template 1, two consecutive incorporations during the initiation stage prevented the efficient synthesis of RNA products containing 2′-F-dCMP. With template 3 starting with C, 2′-F-dCTP was still efficiently incorporated.

[4] = tested on: template for a 37 nt RNA or a 2.7 knt RNA; assay: 2′-F-dNTP incorporation with mixed cofactor Mg2+/Mn2+; format: biochemical; conditions: mixed cofactors Mg2+/Mn2+
Source text: FIG. 25A depicts a gel showing that WT Syn5 polymerase incorporates 2′-F-C/UTP and all four 2′-F′dNTP in the presence of mixed cofactor Mg^2+/Mn^2+.
FIG. 25B depicts a gel comparing 2′-F′dNTP incorporation using Mg^2+ versus the mixed cofactor.
According to certain aspects of the invention, co-factors such as Mg^+2 and Mn^+2 are used to reduce discrimination against 2′-F-dNTP of wild-type Syn5 RNA polymerase. The optimum cofactor concentration of Mg^2+ or Mn^2+ is similar for Syn5 RNA polymerase, and Mg^2+ and Mn^2+ are provided as mixed cofactors for the Syn5 RNA polymerase. Without wishing to be bound by scientific theory, a substantial proportion of Syn5 RNA polymerase in the reaction may utilize one Mg^2+ and one Mn^2+ in their active sites for catalysis (based on the two-metal-ion mechanism for polymerase catalysis) so that both high overall yield and low discrimination against 2′-F-dNTP can be achieved with the methods described herein.
The reaction components were incubated at 37° C. for 4 hrs. 0.4 µl of the reaction mixture were loaded onto 10% TBE gel or 2% agarose gel and stained with ethidium bromide. […] See FIG. 25A lane 5 vs lane 1; FIG. 25B lane 3 vs lane 1). […]

For “T7 RNAP: RNA polymerase encoded by bacteriophage T7, from New England Biolabs [reference compound]”, the “temperature of maximum activity” value [1] is given as 37 °C.

B1: Syn5 RNAP: single subunit DNA-dependent RNA polymerase from marine cyanophage Syn5, amino acid sequence SEQ ID NO:23 (protein)
chain: MSFDLIARQLQRETEAAELARKRLQDARREANERSYASSNIESRKAIATFLDPIAQRIGERLFTLRRGTGAVDAAEVYKHLKNADHHHLALITMKTALDVLGKDPEPQIQQLTTAIGRNIQLELRLTYYAEENPELYKQASRFFHAGTGTRQKATVIKLKFNREGIEWDQWSRVTCHKVGQWLMLAMADVTGWIERATDRTSGGRKTKTRICYSREFLQHRDTILAAAEQLAFCQWPMLCPPIEWSNDHNGGYLSEQIRRVNPLIRKTGPLGTRKQGDIPLAMLNNLQGQAYKVNPEVLDIANHCYESNVTVGKFIRHAPLPVPPSPGEDCTEDQLTAYKRARREAEDFNAQISQKNWRTTEVMYVARKYADEASFWMPASFDYRGRVYFLNTALNPQGTDFDKALLYFAEEGPVNEWWLSFHVATTYGLDKETMVNRVQWARDNHELIDRIASDPVRHTEWHDADEPWCFLAACLEYKACVIDGTKQTSGLPIGIDATCSGLQHLAAMTRCGRTAALVNVTPTDKPADAYKTVAQASLKHLPKEQHEWITRKVTKRPVMCTPYGVTMSSARGYIRDQLVKDGHKEDLRSPGVLNGIVKAIFNEAIPEVIPGPVQVMAWLKRSAGQIIDRGDSTITWTTPSGFEVVQDLKKSKTYEVKTRIMGGARIKLQVGDGFTDEPDRDHHKSALAPNVVHSNDASLLHLTFAFWDKPFTVIHDCVLGRSCDMDQMGSDIRLHFAEMYKADVMQDWADQVGVELPVDLIKNTLDIDSVNQSLYFFS
modifications: Amino acid sequence of a cyanophage Syn5 RNAP
For B1, the “activity of enzyme purified by Ni-NTA and gel filtration” value ([2]; 50 nM RNAP, RT) was “close to that of T7 RNAP”, the “increase of specific activity by improved purification (2 M NaCl)” value ([2]; versus previous three-step purification) was 2 fold and the “full-length products containing 2′-F-dUMP” value ([3]; template 1 and 3) was “low yield”. The “incorporation of 2′-F-dUTP” value ([3]; template 2) was “efficient incorporation”, the “incorporation of 2′-F-dCTP” value ([3]; template 2 and 3) was “incorporated very well” and the “full-length transcript with ATP replaced by 2′-F-dATP” value ([3]; templates 1, 2, 3) was “none of them produces full-length transcript”. The “discrimination against 2′-F-dCTP” value ([3]; transcription elongation) was “no intrinsic discrimination against 2′-F-dCTP”, the “RNA with all four 2′-F-dNMPs” value [4] was “substantial yield” and the “yield of 2′-F-dCMP/2′-F-dUMP incorporated RNA” value [4] was “better yield”.
